{
  "source": "paper PMC2751797",
  "proteins": {"B1": {"name": "NfsB (His6-NfsB) (Escherichia coli K-12) (protein)", "chain": "MDIISVALKRHSTKAFDASKKLTPEQAEQIKTLLQYSPSSTNSQPWHFIVASTEEGKARVAKSAAGNYVFNERKMLDASHVVVFCAKTAMDDVWLKLVVDQEDADGRFATPEAKAANDKGRKFFADMHRKDLHDDAEWMAKQVYLNVGNFLLGVAALGLDAVPIEGFDAAILDAEFGLKEKGYTSLVVVPVGHHSVEDFNATLPKSRLPQNITLTEV"}},
  "substrate": "NC(=O)c1cc(N2CC2)c([N+](=O)[O-])cc1[N+](=O)[O-]",
  "assay": "purified protein",
  "type": "biochemical, Escherichia coli",
  "conditions": "NADPH 60 μM fixed, 10 mM Tris-HCl pH 7.5, 23 °C",
  "data": [
    {"protein": "B1", "values": [
      {"measurement": "Km", "result": "79 ± 22", "unit": "µM"},
      {"measurement": "kcat/Km", "result": 26000, "unit": "M⁻¹ s⁻¹"}
    ]}
  ]
}
